Publication PMC9482650, “Quantitative fragmentomics allow affinity mapping of interactomes” (Nature Communications, 2022)

T1: RHPN1, Q8TCX5
T1 sequence (Q8TCX5 508-602, limits assumed, looked up): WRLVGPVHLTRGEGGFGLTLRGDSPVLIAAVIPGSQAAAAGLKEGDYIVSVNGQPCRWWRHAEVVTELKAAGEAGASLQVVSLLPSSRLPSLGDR

T2: APBA2_1, Q99767
T2 sequence (Q99767 563-664, limits assumed, looked up): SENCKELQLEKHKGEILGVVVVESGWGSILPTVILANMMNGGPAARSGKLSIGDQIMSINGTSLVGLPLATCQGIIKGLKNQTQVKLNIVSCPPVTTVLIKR

T3: LIN7C, Q9NUP9
T3 sequence (Q9NUP9 88-185, limits assumed, looked up): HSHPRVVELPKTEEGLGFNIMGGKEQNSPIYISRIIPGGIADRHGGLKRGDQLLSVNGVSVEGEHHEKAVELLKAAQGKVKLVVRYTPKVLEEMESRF

T4: ARHGEF11, O15085
T4 sequence (O15085 42-136, limits assumed, looked up): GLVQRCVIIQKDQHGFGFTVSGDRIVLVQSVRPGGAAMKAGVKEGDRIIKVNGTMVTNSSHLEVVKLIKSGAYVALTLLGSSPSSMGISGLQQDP

T5: RADIL, Q96JH8
T5 sequence (Q96JH8 971-1071, limits assumed, looked up): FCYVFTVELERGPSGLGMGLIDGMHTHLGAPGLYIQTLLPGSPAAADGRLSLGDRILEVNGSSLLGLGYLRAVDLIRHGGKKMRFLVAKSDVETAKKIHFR

T6: GRIP1_2, Q9Y3R0
T6 sequence (Q9Y3R0 145-248, limits assumed, looked up): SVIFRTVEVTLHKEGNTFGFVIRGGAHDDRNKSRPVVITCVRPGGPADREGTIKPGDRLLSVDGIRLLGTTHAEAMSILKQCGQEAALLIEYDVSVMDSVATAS

T7: SNTG1, Q9NSN8
T7 sequence (Q9NSN8 52-150, limits assumed, looked up): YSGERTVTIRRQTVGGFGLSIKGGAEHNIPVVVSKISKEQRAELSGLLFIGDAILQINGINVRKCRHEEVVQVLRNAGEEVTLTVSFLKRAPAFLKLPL

T8: GRIP1_3, Q9Y3R0
T8 sequence (Q9Y3R0 247-346, limits assumed, looked up): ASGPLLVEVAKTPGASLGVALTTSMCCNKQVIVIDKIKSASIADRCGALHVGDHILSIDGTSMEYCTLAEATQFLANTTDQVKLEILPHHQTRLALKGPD

T9: TJP3_3, O95049
T9 sequence (O95049 375-456, limits assumed, looked up): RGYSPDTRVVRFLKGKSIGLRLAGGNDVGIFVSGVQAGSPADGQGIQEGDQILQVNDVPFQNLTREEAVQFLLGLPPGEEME

T10: SYNJ2BP, P57105
T10 sequence (P57105 8-110, limits assumed, looked up): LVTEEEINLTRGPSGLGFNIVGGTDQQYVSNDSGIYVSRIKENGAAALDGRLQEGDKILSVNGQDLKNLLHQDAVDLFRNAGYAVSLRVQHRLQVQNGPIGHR

T11: NHERF3_3, Q5T2W1
T11 sequence (Q5T2W1 238-333, limits assumed, looked up): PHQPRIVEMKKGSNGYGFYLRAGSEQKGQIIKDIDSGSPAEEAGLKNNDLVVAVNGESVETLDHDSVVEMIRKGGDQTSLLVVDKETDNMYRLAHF

T12: NHERF3_1, Q5T2W1
T12 sequence (Q5T2W1 4-100, limits assumed, looked up): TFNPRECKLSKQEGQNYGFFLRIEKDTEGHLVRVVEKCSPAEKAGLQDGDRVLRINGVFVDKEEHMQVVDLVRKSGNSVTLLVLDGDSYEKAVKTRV

B1: PLEKHG7, Q6ZR37 (peptide)
chain: FTLPAESSEI
B2: ADGRA2, Q96PE1 (peptide)
chain: TGLWKSETTV
B3: GAB3, Q8WWW8 (peptide)
chain: EWTDERQSKV
B4: EPHB6, O15197 (peptide)
chain: HLRQQGSVEV

Key:
Assay in all cases: holdup assay
Parameters in all cases: key: below the threshold = too weak to quantify, mostly under pKd 3.1 to 4
Details in all cases: plain residues with an end cap or a label only (N-terminal biotin on a linker: ado-ado)
DLG2_3, Q15700 = target: DLG2_3, Q15700
PDZRN4_1, Q6ZMN7 = target: PDZRN4_1, Q6ZMN7
RHPN1, Q8TCX5 = target: T1, RHPN1, Q8TCX5
APBA2_1, Q99767 = target: T2, APBA2_1, Q99767
LIN7C, Q9NUP9 = target: T3, LIN7C, Q9NUP9
Inadl_10, Q8NI35 = target: Inadl_10, Q8NI35
ARHGEF11, O15085 = target: T4, ARHGEF11, O15085
HTRA1, Q92743 = target: HTRA1, Q92743
RADIL, Q96JH8 = target: T5, RADIL, Q96JH8
DLG2_2, Q15700 = target: DLG2_2, Q15700
GRIP1_2, Q9Y3R0 = target: T6, GRIP1_2, Q9Y3R0
CASK, O14936 = target: CASK, O14936
GRIP2_6, Q9C0E4 = target: GRIP2_6, Q9C0E4
SNTG1, Q9NSN8 = target: T7, SNTG1, Q9NSN8
TJP1_2, Q07157 = target: TJP1_2, Q07157
GRID2IP_1, A4D2P6 = target: GRID2IP_1, A4D2P6
GRIP1_3, Q9Y3R0 = target: T8, GRIP1_3, Q9Y3R0
ARHGEF12, Q9NZN5-2 = target: ARHGEF12, Q9NZN5-2
Inadl_2, Q8NI35 = target: Inadl_2, Q8NI35
LNX1_2, Q8TBB1 = target: LNX1_2, Q8TBB1
TJP3_3, O95049 = target: T9, TJP3_3, O95049
SYNJ2BP, P57105 = target: T10, SYNJ2BP, P57105
NHERF3_3, Q5T2W1 = target: T11, NHERF3_3, Q5T2W1
MAGI1_1, Q96QZ7 = target: MAGI1_1, Q96QZ7
NHERF3_1, Q5T2W1 = target: T12, NHERF3_1, Q5T2W1
IL16_4, Q14005 = target: IL16_4, Q14005
IL16_4, Q14005, sequence (Q14005 1229-1329): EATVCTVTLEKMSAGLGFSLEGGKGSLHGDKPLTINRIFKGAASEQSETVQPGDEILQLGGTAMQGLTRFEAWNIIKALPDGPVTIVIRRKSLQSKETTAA

PDZRN4_1, Q6ZMN7, sequence (Q6ZMN7 213-318): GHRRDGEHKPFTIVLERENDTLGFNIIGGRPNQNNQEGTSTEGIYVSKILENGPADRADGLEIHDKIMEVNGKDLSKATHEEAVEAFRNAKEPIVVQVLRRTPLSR
MAGI1_1, Q96QZ7, sequence (Q96QZ7 1-106): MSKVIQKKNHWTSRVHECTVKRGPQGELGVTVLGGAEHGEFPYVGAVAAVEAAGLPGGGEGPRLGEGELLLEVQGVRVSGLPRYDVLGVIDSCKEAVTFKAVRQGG
GRID2IP_1, A4D2P6, sequence (A4D2P6 1-87): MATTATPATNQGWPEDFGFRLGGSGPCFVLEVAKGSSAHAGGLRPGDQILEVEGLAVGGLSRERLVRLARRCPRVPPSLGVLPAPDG
HTRA1, Q92743, sequence (Q92743 360-477): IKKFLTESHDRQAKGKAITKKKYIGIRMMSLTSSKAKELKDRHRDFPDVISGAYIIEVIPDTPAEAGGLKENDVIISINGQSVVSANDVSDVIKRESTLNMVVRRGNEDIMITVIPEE
GRIP2_6, Q9C0E4, sequence (Q9C0E4 648-740): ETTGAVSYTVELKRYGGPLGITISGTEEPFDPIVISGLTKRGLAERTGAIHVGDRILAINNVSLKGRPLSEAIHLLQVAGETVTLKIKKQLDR
ARHGEF12, Q9NZN5-2, sequence (Q9NZN5 other isoform, or with tags, fused parts or gaps): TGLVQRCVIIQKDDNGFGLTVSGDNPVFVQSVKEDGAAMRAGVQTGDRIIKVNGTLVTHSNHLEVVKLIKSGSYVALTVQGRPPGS
Inadl_2, Q8NI35, sequence (Q8NI35 238-335): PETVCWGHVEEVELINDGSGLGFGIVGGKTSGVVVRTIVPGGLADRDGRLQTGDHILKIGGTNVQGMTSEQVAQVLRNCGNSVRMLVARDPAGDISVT
TJP1_2, Q07157, sequence (Q07157 181-274): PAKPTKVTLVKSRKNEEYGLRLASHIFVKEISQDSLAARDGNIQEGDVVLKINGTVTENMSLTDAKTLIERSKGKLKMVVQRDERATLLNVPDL
Inadl_10, Q8NI35, sequence (Q8NI35 1673-1763): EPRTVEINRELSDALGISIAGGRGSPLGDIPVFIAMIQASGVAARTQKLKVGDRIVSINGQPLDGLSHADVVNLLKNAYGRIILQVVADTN
CASK, O14936, sequence (O14936 487-570): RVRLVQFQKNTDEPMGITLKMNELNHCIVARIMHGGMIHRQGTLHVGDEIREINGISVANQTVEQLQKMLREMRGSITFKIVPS
LNX1_2, Q8TBB1, sequence (Q8TBB1 371-470): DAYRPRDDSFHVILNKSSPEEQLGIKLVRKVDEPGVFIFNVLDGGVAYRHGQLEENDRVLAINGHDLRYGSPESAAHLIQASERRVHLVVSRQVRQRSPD

Binder	pKd (DLG2_3, Q15700)	pKd (PDZRN4_1, Q6ZMN7)	pKd (RHPN1, Q8TCX5)	pKd (APBA2_1, Q99767)	pKd (LIN7C, Q9NUP9)	pKd (Inadl_10, Q8NI35)	pKd (ARHGEF11, O15085)	pKd (HTRA1, Q92743)	pKd (RADIL, Q96JH8)	pKd (DLG2_2, Q15700)	pKd (GRIP1_2, Q9Y3R0)	pKd (CASK, O14936)	pKd (GRIP2_6, Q9C0E4)	pKd (SNTG1, Q9NSN8)	pKd (TJP1_2, Q07157)	pKd (GRID2IP_1, A4D2P6)	pKd (GRIP1_3, Q9Y3R0)	pKd (ARHGEF12, Q9NZN5-2)	pKd (Inadl_2, Q8NI35)	pKd (LNX1_2, Q8TBB1)	other results
B1	3.75	below the threshold	4.68	below the threshold	below the threshold	below the threshold	below the threshold	3.52	below the threshold	below the threshold	below the threshold	below the threshold	below the threshold	below the threshold	below the threshold	below the threshold	below the threshold	4.18	below the threshold	below the threshold	pKd (TJP3_3, O95049): below the threshold; pKd (SYNJ2BP, P57105): 3.98; pKd (NHERF3_3, Q5T2W1): below the threshold; pKd (MAGI1_1, Q96QZ7): below the threshold; pKd (NHERF3_1, Q5T2W1): 3.52; pKd (IL16_4, Q14005): below the threshold
B2	4.5	4.24	4.33	below the threshold	4.29	below the threshold	4.13	4.27	3.95	5.16	below the threshold	below the threshold	below the threshold	4.21	3.6	below the threshold	below the threshold	4.06	below the threshold	3.89	pKd (TJP3_3, O95049): below the threshold; pKd (SYNJ2BP, P57105): 5.08; pKd (NHERF3_3, Q5T2W1): below the threshold; pKd (MAGI1_1, Q96QZ7): 3.55; pKd (NHERF3_1, Q5T2W1): below the threshold; pKd (IL16_4, Q14005): below the threshold
B3	below the threshold	3.86	4.2	below the threshold	below the threshold	below the threshold	3.75	below the threshold	3.61	3.89	below the threshold	below the threshold	below the threshold	3.97	below the threshold	below the threshold	below the threshold	3.68	below the threshold	below the threshold	pKd (TJP3_3, O95049): below the threshold; pKd (SYNJ2BP, P57105): 3.72; pKd (NHERF3_3, Q5T2W1): below the threshold; pKd (MAGI1_1, Q96QZ7): below the threshold; pKd (NHERF3_1, Q5T2W1): 4.36; pKd (IL16_4, Q14005): below the threshold
B4	below the threshold	below the threshold	below the threshold	below the threshold	below the threshold	below the threshold	4.13	4.59	3.74	below the threshold	below the threshold	below the threshold	3.93	below the threshold	below the threshold	4.13	below the threshold	3.67	below the threshold	4.1	pKd (TJP3_3, O95049): below the threshold; pKd (SYNJ2BP, P57105): below the threshold; pKd (NHERF3_3, Q5T2W1): below the threshold; pKd (MAGI1_1, Q96QZ7): below the threshold; pKd (NHERF3_1, Q5T2W1): below the threshold; pKd (IL16_4, Q14005): below the threshold
